Sequences and labels used below:
B1: Peroxisome proliferator-activated receptor delta, residues 71 to 145; numbered along this chain, Q03181 (parent)
chain: NMECRVCGDKASGFHYGVHACEGCKGFFRRTIRMKLEYEKCERSCKIQKKNRNKCQYCRFQKCLALGMSHNAIRF

± gives the uncertainty stated by the source.

The data set covers variants of B1. Nature of the data set: abundance fitness (aPCA) (normalised: wild type 0, dead -1); higher = more abundant; growth selection in yeast, the domain comes from the species named. The conditions noted are these: Homo sapiens.
H15R: the abundance fitness was -0.595 ± 0.057.

For H15N, the abundance fitness was -0.341 ± 0.12.

Consider V18W, for which the abundance fitness was -0.721 ± 0.11.

For V18H, the abundance fitness was -0.764 ± 0.27.

For the variant M68G, the abundance fitness was -0.822 ± 0.081.

With M68F, the abundance fitness is -0.529 ± 0.11.

For M68V, the abundance fitness was -0.652 ± 0.074.

For M68W, the abundance fitness is -0.148 ± 0.049.

On to M68Y, for which the abundance fitness was -0.718 ± 0.16.

As for C41A, the abundance fitness was -1 ± 0.27.

Take C41G: the abundance fitness was -0.684 ± 0.089.

Regarding C41S, the abundance fitness is -0.945 ± 0.23.

As to C41R, the abundance fitness is -0.694 ± 0.099.

Consider N51K, for which the abundance fitness was -0.212 ± 0.065.

With N51V, the abundance fitness is -0.17 ± 0.043.

As for N51P, the abundance fitness is -0.307 ± 0.099.

As to C58M, the abundance fitness was -0.63 ± 0.11.

With C58G, the abundance fitness is -0.822 ± 0.068.

As for C58K, the abundance fitness is -0.825 ± 0.13.

For the variant C58F, the abundance fitness was -1 ± 0.24.

As to C58R, the abundance fitness is -0.771 ± 0.069.

C7P: the abundance fitness was -0.759 ± 0.14.

As for C7S, the abundance fitness is -0.575 ± 0.067.

As for C7F, the abundance fitness was -0.867 ± 0.25.

As for C7R, the abundance fitness was -0.793 ± 0.077.

On to C7W, for which the abundance fitness is -0.895 ± 0.15.

On to C7Q, for which the abundance fitness was -0.584 ± 0.11.

Consider C7D, for which the abundance fitness is -0.952 ± 0.34.

Turning to F75Y, the abundance fitness is 0.026 ± 0.072.

For the variant F75T, the abundance fitness turned out to be 0.171 ± 0.069.

As for F75P, the abundance fitness worked out at 0.152 ± 0.057.

Regarding F75C, the abundance fitness came out at 0.193 ± 0.064.

In the case of A72H, the abundance fitness is 0.047 ± 0.069.

Turning to A72S, the abundance fitness was determined as 0.052 ± 0.04.

On to R59K, for which the abundance fitness is -0.199 ± 0.064.

For the variant R59D, the abundance fitness is -0.361 ± 0.13.

For the variant R59L, the abundance fitness was 0.098 ± 0.035.

For R59G, the abundance fitness is -0.867 ± 0.076.

Regarding G67D, the abundance fitness was -0.441 ± 0.11.

Turning to G67M, the abundance fitness is -0.497 ± 0.097.

G67K: the abundance fitness is -0.407 ± 0.091.

As to G67A, the abundance fitness is -0.411 ± 0.07.

G67V: the abundance fitness was -0.673 ± 0.075.

On to G67L, for which the abundance fitness was -0.808 ± 0.091.

Turning to G67C, the abundance fitness was -0.469 ± 0.11.

Consider G67H, for which the abundance fitness is -0.714 ± 0.23.

As to F28I, the abundance fitness is -1.23 ± 0.49.

For the variant F28Y, the abundance fitness was -0.159 ± 0.12.

On to F28L, for which the abundance fitness was -0.842 ± 0.11.

Take F28D: the abundance fitness was -0.845 ± 0.2.

In the case of F28Q, the abundance fitness was -0.808 ± 0.14.

Take F28N: the abundance fitness is -0.586 ± 0.16.

As to F28V, the abundance fitness is -0.538 ± 0.067.

Consider G13L, for which the abundance fitness was -0.48 ± 0.055.

As for G13R, the abundance fitness is -0.427 ± 0.045.

Regarding G13N, the abundance fitness was -0.01 ± 0.069.

Consider G13A, for which the abundance fitness was -0.239 ± 0.044.

As for G13V, the abundance fitness is -0.353 ± 0.049.

Regarding Y38T, the abundance fitness was -0.607 ± 0.099.

For the variant Y38M, the abundance fitness is -0.631 ± 0.12.

R33E: the abundance fitness was 0.18 ± 0.053.

On to R33Q, for which the abundance fitness was 0.058 ± 0.061.

As for K10N, the abundance fitness is -0.075 ± 0.08.

As for K10F, the abundance fitness is -0.283 ± 0.11.

As to K10G, the abundance fitness was -0.191 ± 0.035.

K10E: the abundance fitness is 0.007 ± 0.039.

On to K10I, for which the abundance fitness is -0.052 ± 0.071.

Consider K10M, for which the abundance fitness is -0.107 ± 0.059.

With K10C, the abundance fitness was -0.336 ± 0.074.

Take K10S: the abundance fitness was -0.106 ± 0.038.

Turning to R29F, the abundance fitness came out at 0.142 ± 0.095.

Turning to R29G, the abundance fitness came out at 0.09 ± 0.03.

As for R29A, the abundance fitness came to 0.191 ± 0.033.

R29I: the abundance fitness came out at 0.132 ± 0.065.

Regarding M2F, the abundance fitness is -0.432 ± 0.39.

On to M2L, for which the abundance fitness is -0.315 ± 0.059.

In the case of M2Y, the abundance fitness is -0.113 ± 0.1.

On to M2H, for which the abundance fitness was -0.276 ± 0.12.

Turning to M2P, the abundance fitness is -0.58 ± 0.11.

With M2S, the abundance fitness was -0.305 ± 0.056.

Regarding H70F, the abundance fitness was 0.039 ± 0.15.

With H70P, the abundance fitness was 0.185 ± 0.12.

As for H70S, the abundance fitness came out at 0.015 ± 0.067.

For the variant H70D, the abundance fitness was 0.394 ± 0.1.

For H70A, the abundance fitness stood at 0.02 ± 0.084.

For the variant R43Q, the abundance fitness is 0.111 ± 0.051.

Regarding R43K, the abundance fitness is 0.078 ± 0.051.

In the case of R43W, the abundance fitness is -0.252 ± 0.049.

As for R43G, the abundance fitness is -0.085 ± 0.033.

Consider R43D, for which the abundance fitness is -0.149 ± 0.075.

In the case of R43I, the abundance fitness was -0.349 ± 0.13.

Regarding S44L, the abundance fitness is -0.038 ± 0.037.

Regarding S44A, the abundance fitness is -0.045 ± 0.039.

F14E: the abundance fitness stood at 0.066 ± 0.042.

F14V: the abundance fitness is 0.018 ± 0.037.

Turning to F14G, the abundance fitness is -0.299 ± 0.039.

For the variant F14I, the abundance fitness was determined as 0.002 ± 0.064.

Consider C45W, for which the abundance fitness is -0.864 ± 0.12.

As to C45Y, the abundance fitness is -0.374 ± 0.11.

On to C45K, for which the abundance fitness was -0.927 ± 0.17.

For G17Q, the abundance fitness is -0.248 ± 0.061.

G17N: the abundance fitness was -0.238 ± 0.1.

Regarding G17E, the abundance fitness is -0.27 ± 0.061.

For the variant G17S, the abundance fitness was -0.448 ± 0.056.

Consider G17A, for which the abundance fitness is -0.465 ± 0.062.

N1C: the abundance fitness is -0.421 ± 0.11.

For the variant N1W, the abundance fitness was -0.593 ± 0.12.

On to N1Q, for which the abundance fitness is -0.218 ± 0.12.

As for N1E, the abundance fitness was -0.07 ± 0.065.

N1V: the abundance fitness is -0.141 ± 0.057.

Take N1K: the abundance fitness was -0.075 ± 0.073.

For N1P, the abundance fitness is -0.475 ± 0.21.

Regarding R52W, the abundance fitness was -0.286 ± 0.056.

On to R52I, for which the abundance fitness was 0.012 ± 0.087.

With R52Y, the abundance fitness came to 0.012 ± 0.14.

As for R52K, the abundance fitness turned out to be 0.207 ± 0.049.

With R52V, the abundance fitness was 0.07 ± 0.038.

Turning to K35D, the abundance fitness is -0.028 ± 0.07.

On to K35N, for which the abundance fitness came to 0.04 ± 0.062.

On to K35Y, for which the abundance fitness is -0.456 ± 0.12.

Turning to K35V, the abundance fitness is -0.33 ± 0.059.

K35F: the abundance fitness was -0.339 ± 0.1.

Turning to K35L, the abundance fitness was -0.495 ± 0.061.

Turning to K35Q, the abundance fitness was 0.093 ± 0.048.

For the variant E3L, the abundance fitness is -0.106 ± 0.041.

Turning to E3A, the abundance fitness is -0.204 ± 0.047.

E3P: the abundance fitness is -0.353 ± 0.058.

With E3D, the abundance fitness came out at 0.059 ± 0.064.

Take S69Y: the abundance fitness is -0.213 ± 0.095.

As to S69H, the abundance fitness was -0.045 ± 0.089.

S69G: the abundance fitness is -0.001 ± 0.035.

Regarding S69R, the abundance fitness is -0.162 ± 0.042.

As for C63A, the abundance fitness is -0.585 ± 0.077.

On to C63G, for which the abundance fitness is -0.591 ± 0.06.

On to C63V, for which the abundance fitness was -0.912 ± 0.12.

With K54Y, the abundance fitness worked out at 0.17 ± 0.07.

Regarding K54L, the abundance fitness is -0.046 ± 0.039.

K54V: the abundance fitness was -0.037 ± 0.035.

Regarding K54T, the abundance fitness was -0.017 ± 0.046.

As for K54E, the abundance fitness worked out at 0.122 ± 0.041.

For the variant K25V, the abundance fitness was 0.109 ± 0.037.

As to K25E, the abundance fitness was 0.142 ± 0.04.

With K25I, the abundance fitness turned out to be 0.061 ± 0.063.

Take K25F: the abundance fitness was -0.108 ± 0.081.

In the case of K25S, the abundance fitness came out at 0.105 ± 0.038.

In the case of K25M, the abundance fitness worked out at 0.188 ± 0.042.

For K25G, the abundance fitness stood at 0.178 ± 0.031.

Regarding N53S, the abundance fitness is -0.005 ± 0.042.

With N53E, the abundance fitness worked out at 0.123 ± 0.042.

As to N53K, the abundance fitness is -0.104 ± 0.069.

On to K62M, for which the abundance fitness is -0.328 ± 0.076.

Turning to K62V, the abundance fitness was -0.569 ± 0.078.

As to K62G, the abundance fitness is -0.661 ± 0.074.

Regarding K62Y, the abundance fitness is -0.441 ± 0.13.

On to E42K, for which the abundance fitness was -0.209 ± 0.063.

With I73Y, the abundance fitness is -0.097 ± 0.072.

In the case of I73C, the abundance fitness was determined as 0.047 ± 0.057.

Turning to I73N, the abundance fitness amounted to 0.039 ± 0.077.

For the variant I73D, the abundance fitness turned out to be 0.119 ± 0.055.

For I73S, the abundance fitness was 0.071 ± 0.035.

As for I73G, the abundance fitness turned out to be 0.136 ± 0.033.

C55T: the abundance fitness was -0.393 ± 0.11.

In the case of C55I, the abundance fitness was -0.67 ± 0.22.

Turning to C55H, the abundance fitness is -0.441 ± 0.29.

For the variant C55A, the abundance fitness is -0.806 ± 0.14.

In the case of C55W, the abundance fitness was -0.858 ± 0.087.

As for C55D, the abundance fitness is -1.39 ± 0.49.

The values above are taken from the Human Domainome abundance scans (Beltran et al. 2025).
